Reference: patent US20250325664A1, “COMBINATION THERAPY WITH AN ANTI-COLONY STIMULATING FACTOR 1 RECEPTOR ANTIBODY AND A JAK INHIBITOR” (Incyte Corporation, priority 2024, published 2025)

Key:
[1] = Population PK/PD model of axatilimab: post-hoc exposures and pediatric simulation; parameters: species or system human; details: five participants aged 12 to 17 years in cGVHD studies vs adults of same dose groups
Source text: In addition, the developed population PK/PD model for axatilimab was extrapolated to simulate PK in pediatric patients aged 12 to 17 years, using standard allometric exponents of 0.75 for clearance-related parameters and 1.0 for volume of distribution-related parameters.

[2] = tested on: subjects with cGVHD; details: human, in vivo
[3] = tested on: subjects with cGVHD; assay: Clinical study of axatilimab given as a single agent to subjects with cGVHD after at least two prior lines of systemic therapy

## axatilimab: humanized IgG4 monoclonal antibody that binds CSF-1R; heavy chain SEQ ID NO:2, light chain SEQ ID NO:3
[1]
  post-hoc PK exposures in participants aged 12 to 17 years: comparable to those observed in adult participants from the same dose groups
[2]
  severity of infections: Most infections were mild
[3]; 0.3 mg/kg Q2W
  participants with treatment-emergent adverse events (TEAEs): 6%
  reported CMV infections: no CMV infections were reported
[3]; 0.3 mg/kg Q2W cohort, first 6 cycles
  participants with reduction in modified Lee Symptom Scale (mLSS) score ≤7 points: 55%
[3]; 0.3 mg/kg Q2W vs 1 mg/kg Q2W vs 3 mg/kg Q4W
  frequency of treatment-related AEs, any grade and ≥Grade 3: showed dose dependency, with lowest incidence at 0.3 mg/kg Q2W
[3]; 0.3 mg/kg Q2W, first 6 cycles
  objective response rate (ORR), primary endpoint: 73.8%
[3]; 1 mg/kg Q2W
  participants with treatment-emergent adverse events (TEAEs): 22%
[3]; 1 mg/kg Q2W, first 6 cycles
  objective response rate (ORR), primary endpoint: 66.7%
[3]; 3 mg/kg Q4W
  participants with treatment-emergent adverse events (TEAEs): 18%
[3]; 3 mg/kg Q4W, first 6 cycles
  objective response rate (ORR), primary endpoint: 50%
[3]; all dose cohorts
  most common TEAEs: elevated aspartate aminotransferase/alanine aminotransferase (AST/ALT), creatine phosphokinase (CPK), lipase, amylase, and lactate dehydrogenase levels as well as periorbital edema
[3]; higher dose cohorts
  reported CMV infections (number): 2
